The RNAGym collection of RNA variant scans (doi:10.1021/acssynbio.7b00057)

B1: Pistol ribozyme (parent)
chain: GGGUCGUUGUUCCAUAAUCGCGUGGAUAUGGCACGCAAGUUUCUACCGGGCACCGUAAAUGUCCGACUGGAGCCGUUCGGGCGGCUAUAAACAGACCUCAGGCCCGAAGCGUGGCGGCACCUGCCGCCGGUGGUAAAAAAGAUCGGAAGAGCACACGUCU

Variants of: B1
Assay: aptazyme ON/OFF ratio, guanine; higher = stronger switching; co-transcriptional cleavage with and without guanine

| Variant | aptazyme ON/OFF ratio |
| --- | --- |
| U8G G9U U10G C12G C13U | 1.02 |
| U8G G9U U10G C12G C13G | 1.05 |
| U8G G9U U10G C12G C13A | 1.02 |
| U8G G9U U10A U11G C12U C13A | 1.05 |
| U8G G9U U10A U11G C12U C13U | 1.13 |
| U8G G9U U10A U11G C12U C13G | 1.1 |
| U8G G9U U10G U11G C12U C13A | 1.09 |
| U8G G9U U10G U11G C12U C13G | 1.09 |
| U8G G9U U10G U11G C12U C13U | 1.18 |
| U8G G9U U10C C12G | 1.41 |
| U8G G9U U10C C12U | 1.09 |
| U8G G9U U10C C12A | 1.19 |
| U8G G9U U11C C12G C13G | 1.06 |
| U8G G9U U11C C12G C13U | 1.13 |
| U8G G9U U11C C12G C13A | 1.04 |
| U8G G9U U10C U11G C12U C13G | 1.09 |
| U8G G9U U10C U11G C12U C13A | 1.09 |
| U8G G9U U10C U11G C12U C13U | 1.24 |
| U8G G9U U10C C12G C13U | 1.36 |
| U8G G9U U10C C12G C13A | 1.26 |
| U8G G9U U10C C12G C13G | 1.25 |
| U8G G9U U11C C12U | 1.04 |
| U8G G9U U11C C12G | 1.12 |
| U8G G9U U11C C12A | 1.12 |

| Variant | aptazyme ON/OFF ratio |
| --- | --- |
| U8G G9U U11A C12U C13A | 1.19 |
| U8G G9U U11A C12U C13G | 1.22 |
| U8G G9U U11A C12U C13U | 1.35 |
| U8G G9U U11C C12A C13A | 1.09 |
| U8G G9U U11C C12A C13U | 1.11 |
| U8G G9U U11C C12A C13G | 1.08 |
| U8G G9U U10G U11C C12A C13A | 1.02 |
| U8G G9U U10G U11C C12A C13G | 1.02 |
| U8G G9U U10G U11C C12A C13U | 1.03 |
| U8G G9U U10G C12G | 1.02 |
| U8G G9U U10G C12A | 1.04 |
| U8G G9U U10G C12U | 1.02 |
| U8G G9U U10C U11A C12U C13G | 1.11 |
| U8G G9U U10C U11A C12U C13U | 1.08 |
| U8G G9U U10C U11A C12U C13A | 1.08 |
| U8G G9U U10G U11C C12A | 1.02 |
| U8G G9U U10G U11C C12G | 1.03 |
| U8G G9U U10G U11C C12U | 1.04 |
| U8G G9U U10C U11C C13G | 1.04 |
| U8G G9U U10C U11C C13U | 1.02 |
| U8G G9U U10C U11C C13A | 1.04 |
| U8G G9U U10C U11G C12A C13G | 1.11 |
| U8G G9U U10C U11G C12A C13U | 1.12 |
| U8G G9U U10C U11G C12A C13A | 1.14 |

| Variant | aptazyme ON/OFF ratio |
| --- | --- |
| U8G G9U U10C U11A C12A C13A | 1.07 |
| U8G G9U U10C U11A C12A C13U | 1.09 |
| U8G G9U U10C U11A C12A C13G | 1.08 |
| U8G G9U U11A C12A C13A | 1.18 |
| U8G G9U U11A C12A C13U | 1.1 |
| U8G G9U U11A C12A C13G | 1.22 |
| U8G G9U U10G U11A C12U C13A | 1.05 |
| U8G G9U U10G U11A C12U C13U | 1.06 |
| U8G G9U U10G U11A C12U C13G | 1.05 |
| U8G G9U U11C C12U C13A | 1.06 |
| U8G G9U U11C C12U C13U | 1.03 |
| U8G G9U U11C C12U C13G | 1.08 |
| U8G G9U U10G U11C C12G C13G | 1.03 |
| U8G G9U U10G U11C C12G C13A | 1.04 |
| U8G G9U U10G U11C C12G C13U | 1.02 |
| U8G G9U U10G U11A | 1.09 |
| U8G G9U U10G U11C | 1.02 |
| U8G G9U U10G U11G | 1.07 |
| U8G G9U U10G U11A C12G C13U | 1.04 |
| U8G G9U U10G U11A C12G C13A | 1.05 |
| U8G G9U U10G U11A C12G C13G | 1.17 |
| U8G G9U U11A C12U | 1.36 |
| U8G G9U U11A C12A | 1.42 |
| U8G G9U U11A C12G | 1.25 |

| Variant | aptazyme ON/OFF ratio |
| --- | --- |
| U8G G9U U11A C13G | 1.06 |
| U8G G9U U11A C13A | 1.33 |
| U8G G9U U11A C13U | 1.25 |
| U8G G9U U10G | 1.07 |
| U8G G9U U10C | 1.51 |
| U8G G9U U10G U11G C13U | 1.02 |
| U8G G9U U10G U11G C13G | 1.03 |
| U8G G9U U10G U11G C13A | 1.04 |
| U8G G9U U10C U11G C13A | 1.04 |
| U8G G9U U10C U11G C13G | 1.03 |
| U8G G9U U10C U11G C13U | 1.03 |
| U8G G9U U10G U11G C12A C13G | 1.08 |
| U8G G9U U10G U11G C12A C13A | 1.07 |
| U8G G9U U10G U11G C12A C13U | 1.05 |
| U8G G9U U10A U11G C12G C13U | 1.37 |
| U8G G9U U10C C12A C13U | 1.15 |
| U8G G9U U10C C12A C13A | 1.2 |
| U8G G9U U10C C12A C13G | 1.15 |
| U8G G9U U10G C12U C13U | 1.06 |
| U8G G9U U10G C12U C13A | 1.03 |
| U8G G9U U10G C12U C13G | 1.02 |
| U8G G9U U10C U11C C12U C13A | 1.02 |
| U8G G9U U10C U11C C12U C13U | 1.06 |
| U8G G9U U10C U11C C12U C13G | 1.02 |

| Variant | aptazyme ON/OFF ratio |
| --- | --- |
| U8G G9U U10G U11A C12G | 1.06 |
| U8G G9U U10G U11A C12U | 1.03 |
| U8G G9U U10G U11A C12A | 1.08 |
| U8G G9U U10C C13G | 1.03 |
| U8G G9U U10C C13A | 1.04 |
| U8G G9U U10C C13U | 1.03 |
| U8G G9U U10G U11C C12U C13G | 1.03 |
| U8G G9U U10G U11C C12U C13U | 1.03 |
| U8G G9U U10G U11C C12U C13A | 1.03 |
| U8G G9U U10G C13A | 1.04 |
| U8G G9U U10G C13U | 1.04 |
| U8G G9U U10G C13G | 1.03 |
| U8G G9U U11A C12G C13G | 1.23 |
| U8G G9U U11A C12G C13U | 1.18 |
| U8G G9U U11A C12G C13A | 1.13 |
| U8G G9U U10G U11A C12A C13U | 1.03 |
| U8G G9U U10G U11A C12A C13A | 1.04 |
| U8G G9U U10G U11A C12A C13G | 1.03 |
| U8G G9U U10G U11A C13G | 1.04 |
| U8G G9U U10G U11A C13A | 1.01 |
| U8G G9U U10G U11A C13U | 1.03 |
| U8G G9U U10A U11G C12U | 1.24 |
| U8G G9U U10C U11A C12A | 1.14 |
| U8G G9U U10C U11A C12G | 1.12 |

| Variant | aptazyme ON/OFF ratio |
| --- | --- |
| U8G G9U U10C U11A C12U | 1.11 |
| U8G G9U U11A | 1.73 |
| U8G G9U U11C | 1.24 |
| U8G G9U U11C C13G | 1.03 |
| U8G G9U U11C C13A | 1.1 |
| U8G G9U U10C U11G C12G C13A | 1.15 |
| U8G G9U U10C U11G C12G C13U | 1.08 |
| U8G G9U U10C U11G C12G C13G | 1.14 |
| U8G G9U U10G U11G C12G C13A | 1.07 |
| U8G G9U U10G U11G C12G C13G | 1.17 |
| U8G G9U U10G U11G C12G C13U | 1.09 |
| U8G G9U U10C U11G C12U | 1.19 |
| U8G G9U U10C U11G C12G | 1.25 |
| U8G G9U U10C U11G C12A | 1.12 |
| U8G G9U U10C C12U C13G | 1.08 |
| U8G G9U U10C C12U C13U | 1.2 |
| U8G G9U U10C C12U C13A | 1.11 |
| U8G G9U U10C U11C C12A C13U | 1.02 |
| U8G G9U U10C U11C C12A C13A | 1.05 |
| U8G G9U U10C U11C C12A C13G | 1.1 |
| U8G G9U U10G C12A C13A | 1.03 |
| U8G G9U U10G C12A C13U | 1.05 |
| U8G G9U U10G C12A C13G | 1.04 |
| U8G G9U U10C U11C | 1.05 |

| Variant | aptazyme ON/OFF ratio |
| --- | --- |
| U8G G9U U10C U11G | 1.15 |
| U8G G9U U10C U11A | 1.27 |
| U8G G9U U10C U11C C12G C13U | 1.09 |
| U8G G9U U10C U11C C12G C13A | 1.07 |
| U8G G9U U10C U11C C12G C13G | 1.1 |
| U8G G9U U10C U11C C12A | 1.04 |
| U8G G9U U10C U11C C12U | 1.03 |
| U8G G9U U10C U11C C12G | 1.02 |
| U8G G9U U10G U11C C13A | 1.02 |
| U8G G9U U10G U11C C13G | 1.04 |
| U8G G9U U10G U11C C13U | 1.03 |
| U8G G9U U10A U11G C13G | 1.03 |
| U8G G9U U10A U11G C13A | 1.09 |
| U8G G9U U10A U11G C13U | 1.04 |
| U8G G9U U10C U11A C13U | 1.12 |
| U8G G9U U10C U11A C13G | 1.04 |
| U8G G9U U10C U11A C13A | 1.06 |
| U8G G9U U10C U11A C12G C13G | 1.14 |
| U8G G9U U10C U11A C12G C13U | 1.16 |
| U8G G9U U10C U11A C12G C13A | 1.08 |
| U8G G9U U10G U11G C12A | 1.06 |
| U8G G9U U10G U11G C12G | 1.13 |
| U8G G9U U10G U11G C12U | 1.2 |
